Measured values reported in the supplement of paper PMC9233669.
This sample holds only a part of the variants without activity.

Experiments:
biotinyl-Phe-oxazolone = assay: self-aminoacylation, catalytic enhancement (BFO) (fold over background); higher = more active; k-Seq, kA / k0A0; sequences stand for … in GGGAAUGGAUCCACAUCUACGAAUUC…UUCACUGCAGACUUGACGAAGCUG
Method in brief: (§1)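 Mutagenized RNA pools with a 21-nt variable region (0.43 μM) reacted with each biotinyl-aminoacyl-oxazolone at 2–1250 μM. Reactions ran in 50 μL HEPES/NaCl/KCl/MgCl2/CaCl2 buffer with 5% acetonitrile, pH 6.9–7.0, for 90 minutes at room temperature. Streptavidin-captured RNA was quantified by triplicate qPCR and Illumina sequencing, and per-sequence fraction reacted was fit to a pseudo-first-order model with 1000 bootstraps. Catalytic enhancement is median kA divided by the uncatalyzed rate, the low-activity peak of a bimodal Gaussian fit.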

biotinyl-Val-oxazolone = assay: self-aminoacylation, catalytic enhancement (BVO) (fold over background); higher = more active; k-Seq, kA / k0A0; sequences stand for … in GGGAAUGGAUCCACAUCUACGAAUUC…UUCACUGCAGACUUGACGAAGCUG
Method in brief: as §1

biotinyl-Met-oxazolone = assay: self-aminoacylation, catalytic enhancement (BMO) (fold over background); higher = more active; k-Seq, kA / k0A0; sequences stand for … in GGGAAUGGAUCCACAUCUACGAAUUC…UUCACUGCAGACUUGACGAAGCUG
Method in brief: as §1

biotinyl-Leu-oxazolone = assay: self-aminoacylation, catalytic enhancement (BLO) (fold over background); higher = more active; k-Seq, kA / k0A0; sequences stand for … in GGGAAUGGAUCCACAUCUACGAAUUC…UUCACUGCAGACUUGACGAAGCUG
Method in brief: as §1

biotinyl-Trp-oxazolone = assay: self-aminoacylation, catalytic enhancement (BWO) (fold over background); higher = more active; k-Seq, kA / k0A0; sequences stand for … in GGGAAUGGAUCCACAUCUACGAAUUC…UUCACUGCAGACUUGACGAAGCUG
Method in brief: as §1

biotinyl-Ile-oxazolone = assay: self-aminoacylation, catalytic enhancement (BIO) (fold over background); higher = more active; k-Seq, kA / k0A0; sequences stand for … in GGGAAUGGAUCCACAUCUACGAAUUC…UUCACUGCAGACUUGACGAAGCUG
Method in brief: as §1

Sequence	self-aminoacylation (biotinyl-Phe-oxazolone)	self-aminoacylation (biotinyl-Val-oxazolone)	self-aminoacylation (biotinyl-Met-oxazolone)	self-aminoacylation (biotinyl-Leu-oxazolone)	self-aminoacylation (biotinyl-Trp-oxazolone)	self-aminoacylation (biotinyl-Ile-oxazolone)
CUACUUCAAAGAAUAGGUCUG [Fam1A.1 aminoacylation ribozyme variant]	0.944	0.746	0.784	0.699	0.59	0.816
CUACUUCAAAGAAUCGGUCGG [Fam1A.1 aminoacylation ribozyme variant]	1.37	0.795	0.844	1.05	1.12	0.763
CUACUUCAAAGAAUCGGUGUG [Fam1A.1 aminoacylation ribozyme variant]	1.04	0.803	0.905	1.28	1.02	0.994
CUACUUCAAAUAAUCAGUCUG [Fam1A.1 aminoacylation ribozyme variant]	8.19	0.935	0.717	0.891	3.71	0.956
CUACUUCAAAUAAUCGGCCUG [Fam1A.1 aminoacylation ribozyme variant]	14.5	0.985	0.902	1.36	12	1.11
CUACUUCAAAUCAUCGGUCUG [Fam1A.1 aminoacylation ribozyme variant]	0.771	0.855	0.83	0.917	0.65	0.876
CUACUUCAACCAAGCGGUCUG [Fam1A.1 aminoacylation ribozyme variant]	0.739	0.954	0.907	0.942	0.8	1.02
CUACUUCAACCAAUCGGUCCG [Fam1A.1 aminoacylation ribozyme variant]	6.1	0.799	1.26	1.22	5.57	0.867
CUACUUCAACCUAUCGGUCUG [Fam1A.1 aminoacylation ribozyme variant]	1.32	0.884	1.03	0.79	1.02	1.01
CUACUUCAAGCGAUCGGUCUG [Fam1A.1 aminoacylation ribozyme variant]	0.917	0.781	0.769	0.799	0.654	0.77
CUACUUCAAGGAAUCGGUCUG [Fam1A.1 aminoacylation ribozyme variant]	8.77	1.42	1.64	1.97	3.64	1.54
CUACUUCAAUCAAUCAGUCUG [Fam1A.1 aminoacylation ribozyme variant]	16.5	0.86	0.809	0.946	6.4	0.942
CUACUUCAAUCAAUCGGUCUU [Fam1A.1 aminoacylation ribozyme variant]	19.8	1.11	1.07	1.35	10.6	1.23
CUACUUCAAUCAAUCGGUGUG [Fam1A.1 aminoacylation ribozyme variant]	7.44	1.27	1.19	1.83	4.96	1.18
CUACUUCAAUCAAUCUGUCUG [Fam1A.1 aminoacylation ribozyme variant]	1.25	0.597	0.539	0.57	0.721	0.599
CUACUUCAAUCAAUGGGUCUG [Fam1A.1 aminoacylation ribozyme variant]	0.579	0.809	0.801	0.912	0.627	0.889
CUACUUCAAUCGAUCGGUCUG [Fam1A.1 aminoacylation ribozyme variant]	0.776	0.754	0.707	0.634	0.977	0.687
CUACUUCACACAAGCGGUCUG [Fam1A.1 aminoacylation ribozyme variant]	0.75	0.993	0.816	0.817	1.01	1.03
CUACUUCACACAAUCGGUCUU [Fam1A.1 aminoacylation ribozyme variant]	0.701	0.85	0.639	0.856	0.713	0.963
CUACUUCACACAAUCUGUCUG [Fam1A.1 aminoacylation ribozyme variant]	0.903	0.699	0.558	0.573	0.513	0.655
CUACUUCACACGAUCGGUCUG [Fam1A.1 aminoacylation ribozyme variant]	0.678	0.777	0.97	0.853	0.654	0.913
CUACUUCAGACAAACGGUCUG [Fam1A.1 aminoacylation ribozyme variant]	0.868	0.863	0.962	0.908	0.573	0.89
CUACUUCAGAUAAUCGGUCUG [Fam1A.1 aminoacylation ribozyme variant]	0.629	0.686	0.648	0.675	0.432	0.643
CUACUUCAGGCAAUCGGUCUG [Fam1A.1 aminoacylation ribozyme variant]	1.02	1.24	0.853	1.42	1.27	0.94
CUACUUCAGUCAAUCGGUCUG [Fam1A.1 aminoacylation ribozyme variant]	0.793	0.807	0.848	0.667	0.463	0.565
